Where two headings read alike, the source gives them in different places.

What all share (assay): single-molecule bead assay
For experiment [1], the target named is Microtubules of porcine brain tubulin, tetramethylrhodamine-labelled, taxol-stabilised (porcine) (UniProt P02550).
Experiment [2] has the same target. The source holds these as a separate data set.
For experiment [3] the target is unchanged. The source holds these as a separate data set.
For experiment [4] the target is unchanged. The source holds these as a separate data set.
The target is the same in experiment [5]. This is another data set of the same source.
For experiment [6] the target is unchanged. This is another data set of the same source.
Experiment [7] has the same target. This is another data set of the same source.
The target is the same in experiment [8]. The source holds these as a separate data set.

On to “Conventional kinesin (native, from bovine brain) (complex)”, for which the average duration (time between attachment and detachment) was found to be 0.8 s in experiment [1]; 1.01 s in experiment [2]; 0.92 s in experiment [3]; 1.19 s in experiment [4]; 1.03 s in experiment [5]; 1.53 s in experiment [6]. Besides, the average duration (time between attachment and detachment) in experiment [7] came out at 1.11 s; in experiment [8] it was 0.69 s.

For the origin of these results see paper PMC5036643.
